Assay results reported in a protein production outcome set (Wang et al. 2014).

Assay: label from the status in PepcDB records

Sequence	protein production
MPYMTTDAKEVSGKSFDYIVVGGGTAGCSLAATLSEKYSVLVIERGGSPFGDPLVEERKYFGYSLLNTDEYSSVAQSFTSVDGIENYRGRVLGGSSAINGGFYSRASDEFVKKAGWDKGLVQESYKWVESKVVFMPELTQWQSVVQFGFLEAGFYPYNGYSLEHTQGTKIGGSIYDQCGKRHTSADLLGFGKPNCITVLLNTTVKSIIFDSSNKTRAVGVRFMESDGNSSKSYKVHVEQHRGEVILAAGALGSPQILLLSGIGPENHLKDFDIPVIVNLKEVGRKMSDNPAISLLVDRFSQNRTLEPPQVAAIAEGYKFILESEVLPTDITTTRISIAAKIAFPKSKGRLKLNSTNPRENPSVKFNYLENKADLDACLEMVLHLQHVARSETVTFFLGTQAHDKLVAGDEELKSFCIKNVRTYYHYHGGCVVGSVVDEEYKVNGVKRLRVVDGSTFEESPGTNPMATVLMLGRYQGIKILKEREEQEDTFLSPQGSPQPQP	failed
MNEIILITGAYGMVGQNTALYFKKNKPDVTLLTPKKSELCLLDKDNVQAYLKEYKPTGIIHCAGRVGGIVANMNDLSTYMVENLLMGLYLFSSALDSGVKKAINLASSCAYPKFAPNPLKESDLLNGSLEPTNEGYALAKLSVMKYCEYVSAEKGVFYKTLVPCNLYGEFDKFEEKIAHMIPGLIARMHTAKLKNEKEFAMWGDGTARREYLNAKDLARFISLAYENIASIPSVMNVGSGVDYSIEEYYEKVAQVLDYKGVFVKDLSKPVGMQQKLMDISKQRALKWELEIPLEQGIKEAYEYYLKLLEV	failed
MKEKIPFYNEKEFHYMMKKTKKGTFSGWYIINPENNSVEFSGSFNRQFKLNKPVIPVNTEYVTRKEFNEYKDSNDQRLTKIENKVDKLEIKVDKLEKKVDKLEVKVDKLVETVNAQGEDLNNFKVEVRGTLQSQGETLQLILQTLQGMSKRLDSVEGRLDSMDGRLDSMETRLDKIDPLKLEHHHHHH	failed
MDQTIHHQIQQALHFRTAVRVYKEEKISDEDLALILDAAWLSPSSIGLEGWRFVVLDNKPIKEEIKPFAWGAQYQLETASHFILLIAEKHARYDSPAIKNSLLRRGIKEGDGLNSRLKLYESFQKEDMDMADNPRALFDWTAKQTYIALGNMMMTAALLGIDTCPIEGFHYDKVNHILAKHNVIDLEKEGIASMLSLGYRLRDPKHAQVRKPKEEVISVVK	not failed
KTFMIGVTSCISGDGKSFCSHNLARIYAISGKKTLLIRGDMRKAFNAPANLIPQGSMGLSQHLIGMATIDQIIHKGEIENLYQIIPGPVPPNASELVASQKMEEFIRIMKDKFEVVIMDSPPVGLVSDYMSVIKHIDANLYIVRYDYTPKETLEAIKDLKNKYPAQSHSIIFNGIT	failed
MELLKHLSQRQYIDGEWVESANKNTRDIINPYNQEVIFTVSEGTKEDAERAILAARRAFESGEWSQETAETRGKKVRAIADKIKEHREALARLETLDTGKTLEESYADMDDIHNVFMYFAGLADKDGGEMIDSPIPDTESKIVKEPVGVVTQITPWNYPLLQASWKIAPALATGCSLVMKPSEITPLTTIRVFELMEEVGFPKGTINLILGAGSEVGDVMSGHKEVDLVSFTGGIETGKHIMKNAANNVTNIALELGGKNPNIIFDDADFELAVDQALNGGYFHAGQVCSAGSRILVQNSIKDKFEQALIDRVKKIKLGNGFDADTEMGPVISTEHRNKIESYMDVAKAEGATIAVGGKRPDRDDLKDGLFFEPTVITNCDTSMRIVQEEVFGPVVTVEGFETEQEAIQLANDSIYGLAGAVFSKDIGKAQRVANKLKLGTVWINDFHPYFAQAPWGGYKQSGIGRELGKEGLEEYLVSKHILTNTNPQLVNWFSK	not failed
MDKPVLKDSMRLFEQLGRVKSRSMFGGFGIFVDETMFALVVNDTLHIRADDATIEKYKQQGYEPYVYKKRGFPVVTKYYALPEDCWSHPDSILNEVRAALEVAKA	failed
MTTWKELTDNNPAHSENYAQRWRNLAAAGNDIYGEARLIDAMAPRGAKILDAGCGQGRIGGYLSKQGHDVLGTDLDPILIDYAKQDFPEARWVVGDLSVDQISETDFDLIVSAGNVMGFLAEDGREPALANIHRALGADGRAVIGFGAGRGWVFGDFLEVAERVGLELENAFESWDLKPFVQGSEFLVAVFTKK	not failed
IYLYATATGEVRQMHGITVDRERERRVPDHHQLDSDTTTHSHSVKNQEYYKLLHENDTWKLSQSLKDRPFVALNPTRKAQMLAHLCNDLLMNKAVLRQIDGSLETCAQMRKEKYMTDMKVRKYKALHMRKARIEAYERAQAEREAAMQALM	failed
MLIEILEFASILALVAVLTLTVMLQDIFFIDINKQYTETRIGTIIFSIRMLFGAWVIFVTETTIIAISKVTAIQLIILLLIWVCSKYVQKTRENWLITIVAFVIYGVGTYIYIQFAFKGY	failed
MNKFLVSLFLPLVAFANSSEAAANANLFGAFTLIPPLVAIALAFITKDVILSLFTGVLSGTFLLSLSANIFKAQHLTFVNYYNTTVESFSKIISYILGSTSDPVNAGIILQILCIGGLVALITKMGGAKAVALKFAKRAKSAVSAQVNTWFLGLLIFFDDYANLLIVGPIMRPLADKFKISREKFAFIIDSTAAPVAGIAVISTWIGLEVSLIKTAYEHIGISNISAFGIFVETIPYRFYNIFMLFFVVMTAIMRREFGSMYKAEVRARTTGQIAPLPKSGTLDTTELEDQFLAPKEGIKIRAFDAIVPIFTLIILAILGFYFNGLSTLEGEELAKASANPLSFETFRAAFGNADSSVVLFQAALFAAIVAIFIGVRRKIFNLKEAVETWIYGWKTMIFTIVLLLFAWSLSSIVKDLGTSLFITSLLADKLPEFILPATIFAFASAISFAIGTSYGTMGILMPLAVPLAHEIAKINGMDANAMHHYMVINISCVLTGAIFGNHCSPISDNVILSSMSAKCDHMEHVRTQIPYALFICGISLIAGYIPVSLGLSVWFVLPLNFILIALLLRLIGKKVP	failed
MRNLSRRIQSHQIRLRPPPFGAKRPVRRSESTSPPPRRRLIVGKRNRSAQVQYSMSHGLTHLSFWPLLFATLALTHVTIVSVTIFLHRHQAHRALSLHPLASHFFRFWLWLTTATVTKEWVSIHRKHHARCETPDDPHSPQCLGIFTVLLRGWMLYRKEARNTATLAQFGNGTPDDWLERKLYSRFPDLGITLMLALNLLLFGIGGLGVWAVQMLWIPFWAAGVVNGLGHHLGYRNFETPDASTNLWPIGFIIGGEELHNNHHAYPASAKFSSRRWEIDIGWLYIRLMTLLKLAKIRNMPPKTIIHTAEPSVDMDTVKAVLRNRAHVLSLYGRRVIVPVLRSEQAKSPKAGRRLLRQTRPLLLREYIKADPAAWHNFSRMLEDSQTLATIFQFKQQLKAVWTDSFTSHEERLERLRAWCLQAKQSDLPWLQHFADTLSGYRLQPAH	failed
MQNYGRLFELVPGKLELFKKLQLLTEQFKNYCLLSRNFEAANTVFGQIEEIYSGILKKEPGHILVSAHLLFLYETSADLYTKLGKIEKAEESYLQALDFLSKKQRASPGNTTYVRQQGKVYRMLGRAFYEAGDSGKAAQYAGKALEILRELAGKNPEDLHYQYEISDDFTGLGKLFEDIGDIERAKECHMQEINIYRNIHERDPEDEVSEANIAATLDRIGHLYAGKGETETAKQYYEQGLEAYEKLSESYPEDIDHEVGIANTLGYIGKQYSDPEPETALKYYKKALGILEDVVQTFPDVPVYKEDLIQTLGYLESLASGQKQYENAILYRERITELSRQLASENPENFDYKKELAISFKHMGLLYEKAEKHELAKQQYSKSADVFRQVLQDENEKDLMKGLLALDLQKQATILIHEKNYGLAKEYLALLRDYYEALYEKDPEKPENWKAVCEIRTLCGILHKSMGNYDAAIQIYKSVFSILHKHPVSDPDNPDYQSIIGVLYTQLGIAYHLADEYDKSKEAFEKSIPINTRLLDEETENFLHMGDMAVALAEYSKLLTSMGMKKEAEEYAAKADEIKEKIMKKFRFDEYTVEDGDKKAL	failed
MTVPLYKQIASLIEDSIVDGTLSIDQRVPSTNELAAFHRINPATARNGLTLLVEAGILYKKRGIGMFVSAQAPALIRERRDAAFAATYVAPLIDESIHLGFTRARIHALLDQVAESRGLYK	failed
MKIESLDLPDEIKRFYENSGILELYPPQAEAVEKGLLEGKNLLAAIPTASGKTLLAELAMLKSVLNGGKALYIVPLRALASEKFRRFQEFSVLGMRVGISTGDYDRRDEGLGINDIIVATSEKTDSLLRNETAWMQEISVVVADEVHLIDSPDRGPTLEITLSKLRRMNPSCQVLALSATVGNADELAAWLDAELVLSEWRPTDLMEGVFYNGIFYCKDKEKPVGQPTKDEAVNLVLDTIKEGGQCLVFESSRKNCMGFAKKAVSAVKKTLSNEDRETLAGIADEIIENSETDVSSVLATCVRSGTAFHHAGLTTPLRELVENGFREGRIKIISSTPTLAAGLNLPARRVIIRSYRRYSSDSGMQPIPVLEYKQMAGRAGRPRLDPYGEAVLLAKSYEEFVFLFEKYIEAGAEDIWSKLGTENALRTHILSTISNGFARTREELMDFLEATFFAFQYSNFGLSAVVDECLDFLRREGMLEKDPDALVSTVFGKLVSRLYIDPLSAALIAKGLREAGTLTELTLLHLICSTPDMRLMYMRSQDYQEVNDYVMAHAGEFSKVPNPFNIAEYEWFLGEVKTSLLLMDWIHEKPENEICLKFGIGEGDIHATADIAEWIMHVTAQLAGLLDLKGAKEASELEKRIRYGAAPELMDLLDIRSVGRVRARKLYEAGFKSTAELAAASPEHIAVLVGPKITERIFKQIGRREAVSEFSDIEPLEKGSSDGQRTISDY	failed
MEFNDLGITIKELRIKKNISQSELCHGICSQSQISKIEKGMIYPSSILLYQLSERLGIDPNNIFALTQNKRLKYVENVKYVIKDCLKQKQYKELYEIVKKEKNLNNFQTKDEKQFLMWHEAIAIFMVDKSIKTALDFLNNALKLTLTNSDFLSEREIDIMQTMAIFYAENKEYEKSINIFKRCLTNFNKLDFPRDKEIKLKLMLNLAKCFDFTYQHEEAIKYIDKGIKLAINLNTLYLLGELFYLKGQCLLKMKQHNVEDVIYNWKKALFIFELTEKEYYTKMLPDELIELQNKKHS	failed
MEQEEPCEAKETASSSIEPKTPNPNVPDSIPAIDSDSSLSEEEIVTEKDRGIVTLSPLCKQRIDSASISDCVLVSDDEIIESLYQNLLRVILSLQQIQSVAVVPEIWCFDGCKTPPPSSRNLDSNMVSDTCPGAPMKLTKISRNIDSGLRRKLF	failed
MSHTLKSVAEDWFAIKKTTITEVTAKSLWRKFENHVFPKLGHRPIDKILAPEAIEALKPLAAKGNLETTGKIIGHLNNIMTHAVNTGILHHNPLSGIRSAFSAPKVTNLEHHHHHH	not failed
MSQFQEVRPVAQALYPTHPSTKDALEEARLLLPGGTHHDFMRALMGYHNTLVKVMEEQC	not failed
ARFMAVSSELKDDTRTYTVAGQVFFASSDRFMSHFDFREAVERVVIDVTHAHFWDITSVSALDRVVIKFRREGTEVEIKGMNDATRTLVDRFGVHDKPEEVEKLMGGH	not failed
MSSRPSRGAARLAAILDALPDALVLVNANGTVVNANTIALEAFETPGTALVGRGLLDLLPEFDSRLIPGSMRRPDSMDPRGRTKPTRMVARRTDGSEFPVEVTSANLENGQQAYDGYGYTGD	failed
MEKQKEVQKEYEEYQYMLDTETWKKELSQFKLSSSEKISKNPKVSIIIANYNNAPYLKKMMDSLVQQTIGIEQLQVMFIDDCSTDHSLKVIEPYLERYPNIEIYQLLENTGGAHGPRNVGIVNARGEYSVFLDADDWYDLNALKYLSDLLDDSHDDFAVSGLIQSTDGHLMLKSKPYYVDGSFKNRSIQELPAEFYGWLGPQAIMLRTSLIHNNNLHFVNQRVADDVLFFYEAMRFSKTITQGERLTTYLNRDADNESLSKSINRTFMLSWLRALSYINQQFPDDLSKERMLARRLEWLIYDFCIRRNTGYPFSKRRLQDFKVQMDQYLGELNFDPSPYFRSDVRQIIWTFLQTNDIDGLYWFIQCQSIRWVLVNRFGYVSKTERSYYYPRLLKRFPAVRMNAYAEATQREGNTLSLNVYTHQKITGFEIKELKNPFETRQRLAFKKISETSYQVELPEKFSNKESRFTIVFDNYLEIGVKDFSKFFALEHHHHHH	failed
